± gives the uncertainty stated by the source.

These results are taken from the supplement of paper PMC12042874.

The series can be described thus: amyloid nucleation score (Sup35N fusion, yeast selection) (log enrichment); library NNK1; higher = more nucleation; inactive = no reads after selection. In short, it runs like this: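 The nucleation score is the log enrichment of output over input reads, calculated with DiMSum and centred on the mode score of non-aggregating sequences. Sequences with under 100 input reads were excluded. Reads came from Illumina sequencing of plasmid inserts from psi-negative yeast expressing Sup35N fused to peptides of 20 random codons, induced 24 hours with 100 μM copper sulfate and grown 7 days at 30°C without adenine and uracil.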
GYVDGSRGRGAPNGAMCRCF registered an amyloid nucleation score of 0.205 ± 0.76.
The substance HARIS had an amyloid nucleation score of -0.313 ± 0.79.
With HCAYRFASENEMKGG, the amyloid nucleation score was determined as 0.321 ± 0.65.
Substance HCLAGNLDLAMVRVRSPTCL yielded an amyloid nucleation score of 0.032 ± 0.59.
Turning to HCSFSWGYRWLGWTTKSGNM, the amyloid nucleation score was 1.31 ± 0.4.
The entry for HCVLRFCNPG is “inactive”.
As for HCVRI, the figure is 1.4 ± 0.6.
With HDFPIR, the amyloid nucleation score entry was “inactive”.
Turning to HDSLMRSGSFNTSVTVEY, the amyloid nucleation score came to 0.843 ± 0.55.
Consider HEGGQWLRKLTGPLGLRFMR, for which the amyloid nucleation score worked out at 0.216 ± 0.48.
Substance HERDIQSSIGDWNKLSKPCN gave an amyloid nucleation score of -0.418 ± 0.31.
For HFCHFVGLNPVQKRRVVPWG, the amyloid nucleation score entry was “inactive”.
HFFVVNQSYPNHFHLLGI gave an amyloid nucleation score of 5.05 ± 0.094.
Substance HFGKRHSYRYLDDTCAQNLY returned an amyloid nucleation score of -0.811 ± 0.63.
The figure for HFMAI is -1.55 ± 0.8.
As for HFVCYNCWGYICTVCLTSRE, the figure is 8.228 ± 0.065.
Take HFVRFRRAMSRHGRVAST: the amyloid nucleation score was -0.979 ± 0.75.
HGCKYAKGASDLYDIMCFCW registered an amyloid nucleation score of 0.602 ± 0.38.
As for HGCSSVILVGMRAEEIFLYY, the figure is 2.71 ± 0.14.
The figure for HGTVNLIYVNEI is 0.133 ± 0.67; for HHGSCFEGLFCSETFCLAIM it is 6.495 ± 0.055; for HHSRIFICDLRWSSTVRHCK it is 1.39 ± 0.16.
As for HIFVMIYVLMEDGSKKLTSM, the figure is 0.99 ± 0.85.
HIGGTFVWLEFPCKWGLTED showed an amyloid nucleation score of 4.46 ± 0.069.
Turning to HITDYRVRT, the amyloid nucleation score was determined as 1.27 ± 0.41.
As for HKNEYSGFKRSKLLYRARMR, the figure is 0.964 ± 0.68.
For HKTFGCCLDLWHIMPHFIIL, the amyloid nucleation score is -0.396 ± 0.37.
With HLAINNADTALGSYKGQVSV, the amyloid nucleation score was found to be 2.36 ± 0.11.
Substance HLGNSSNQIILHQCI gave an amyloid nucleation score of 4.67 ± 0.059.
As for HLIKRYGYSCVRWVC, the figure is 0.003 ± 0.53; as for HLILGLL, -0.54 ± 0.47; as for HLMMTLFFVPVLMCITFTDG, -0.032 ± 0.3.
As for HLNNSLLELVNCRKYSIKGC, the amyloid nucleation score stood at 0.088 ± 0.35.
As to HLPGFNIVSYVQSESIMF, the amyloid nucleation score is -0.08 ± 0.2.
Consider HLRRYMDRYRRGQYGFSYFW, for which the amyloid nucleation score stood at 1.09 ± 0.64.
HLRWQMDWCSHNNGMDVMRG: the amyloid nucleation score turned out to be 3.71 ± 0.12.
HLVDFMDE: the amyloid nucleation score came to 0.105 ± 0.3.
The figure for HLVLFYVSLITFARYSFMGV is -0.058 ± 0.3.
Take HLWRVRLV: the amyloid nucleation score came to 0.01 ± 0.61.
Substance HLYMDSSILRLVEYTWCFKV came in with an amyloid nucleation score of 0.085 ± 0.96.
Substance HMLWSFLLITWYGMICRKGG returned an amyloid nucleation score of -0.15 ± 0.39.
HMRDLEDPQWSDY came in with an amyloid nucleation score of -0.711 ± 0.32.
On to HNFEFTRLAHLDSSTL, for which the amyloid nucleation score stood at 0.248 ± 0.47.
In the case of HNFLSYFQNRNDYCASN, the amyloid nucleation score is -0.503 ± 0.6.
For the substance HNHSTYFHYRFGVSLVLTSR, the amyloid nucleation score came out at 2.29 ± 0.38.
The substance HPLLMYWRRTFVEHRLYLT yielded an amyloid nucleation score of 0.031 ± 1.2.
The figure for HPLWGPYR is 0.518 ± 0.59; for HPSTRCAVANDNIWPLSGPR it is 0.628 ± 0.75.
On to HPSVGYSSLVV, for which the amyloid nucleation score was 0.841 ± 0.62.
The figure for HPYSFWWSWAVKPLPGLRRI is 0.485 ± 0.73.
HQKACCSRLMNCGYNSAKWR returned an amyloid nucleation score of -0.612 ± 0.89.
For HRCRREYSQSSGSWDESIEN, the amyloid nucleation score is 1.05 ± 0.14.
HRRLRMRT displayed an amyloid nucleation score of -0.469 ± 0.79.
On to HRSRITLANVS, for which the amyloid nucleation score was -0.666 ± 0.32.
As for HRSSNVSGLVWSFHRMKYVI, the amyloid nucleation score is 0.599 ± 0.79.
HRVLYIPALDNVVCRDIWRV displayed an amyloid nucleation score of 1.29 ± 0.46.
Substance HSAFSWNYRDSFVEGCSSHG had an amyloid nucleation score of 0.018 ± 0.3.
The figure for HSCAFNESHVFMHILCVISQ is -0.319 ± 0.44; for HSGGVTIQLCSKACVYSGAG it is 0.754 ± 0.19; for HSIVDSRLSCICILSS it is 4.16 ± 0.16.
In turn, HSLRQKVPM yielded an amyloid nucleation score of 0.227 ± 0.3.
HSPLTRNVRSCVK returned an amyloid nucleation score of 0.718 ± 0.36.
The figure for HSRLLASYS is 1.34 ± 0.43.
As for HSSNFGRDSNSWLRAVD, the figure is -0.3 ± 0.61.
Substance HSTTLPLLWAYILYPAFG yielded an amyloid nucleation score of -0.267 ± 0.37.
The substance HSYTTV displayed an amyloid nucleation score of -0.905 ± 2.1.
HVDFQVASSDEDLIHLFLYH came in with an amyloid nucleation score of 0.258 ± 0.54.
HVFIIQRMSWGVLRLLVSCR: the amyloid nucleation score was -0.548 ± 0.52.
On to HVHVTACCRLM, for which the amyloid nucleation score is 7.44 ± 0.077.
As for HVIYRLRGFITSSPFMTLRT, the figure is 0.577 ± 0.45; as for HVSACRNKIHLWSRTHLSGE, 0.83 ± 0.5; as for HVVKCGHYLRRVRNMGKLEF, -0.163 ± 0.79.
As for HVYMGYICCHAETDACMGCR, the figure is 4.57 ± 0.14.
Substance HWYVTVCLVSMCQVGKGKDN came in with an amyloid nucleation score of 3.5 ± 0.087.
HYKDSITVFFIFHIPIQMMM showed an amyloid nucleation score of 4.25 ± 0.057.
Regarding HYQERC, the amyloid nucleation score is -0.604 ± 0.34.
For HYRRVTVMCPLRVFVYAPKT, the amyloid nucleation score was determined as 5.61 ± 0.094.
Turning to HYVGSLMVSW, the amyloid nucleation score is 0.188 ± 0.81.
On to HYVRNPARD, for which the amyloid nucleation score result is “inactive”.
As for HYVVVKRRPMDMSGLVGWDA, the amyloid nucleation score was 0.036 ± 0.43.
Regarding IACSARMFYDS, the amyloid nucleation score was 0.399 ± 0.47.
IAGIEGPI: the amyloid nucleation score was -0.182 ± 1.3.
Substance IASSSTRFLYV gave an amyloid nucleation score of 0.813 ± 0.51.
Substance IAVDTRVGASYVCGSS came in with an amyloid nucleation score of -0.535 ± 0.79.
IAYVQFAPRKY yielded an amyloid nucleation score of 0.776 ± 0.36.
The figure for ICCGCRYFFSTTSV is 6.7 ± 0.06; for ICELIWGGRRSNGINGSTSG it is 0.741 ± 0.23.
As to ICGRNTLCARRRTSRLVGIE, the amyloid nucleation score amounted to 1.1 ± 0.97.
As for ICHGAEHNV, the amyloid nucleation score was -0.735 ± 1.7.
The substance ICIREPTNESLAQLSDGVIR showed an amyloid nucleation score of 2.06 ± 0.6.
ICLITVSMYKSRWIFSKKLT registered an amyloid nucleation score of -0.073 ± 0.54.
The figure for ICLMFLSGTIDYYLY is 0.111 ± 0.84; for ICYKGREHKPRIVNIGSDVR it is “inactive”; for ICYNKSSP it is -0.097 ± 1.2.
As for ICYSGHERYWLNLGICEGDS, the figure is 0.186 ± 0.32; as for IDGCLPTNRVGSSRSVRGNV, “inactive”.
IDNGDCYNDRVLADTVS had an amyloid nucleation score of -0.577 ± 0.6.
Substance IDSKFQPK returned an amyloid nucleation score of 0.972 ± 0.84.
Turning to IDVWCESRVWRTWVYLGVRV, the amyloid nucleation score was 0.903 ± 0.56.
As to IECVS, the amyloid nucleation score is -0.251 ± 0.68.
IEGDFEFGVNVSRAARDMRV returned an amyloid nucleation score of -0.856 ± 0.94.
In the case of IENPVLRCSLYYPSRPIRRL, the amyloid nucleation score was -0.344 ± 0.58.
On to IESEGSWRIHWK, for which the amyloid nucleation score is 0.638 ± 0.39.
IETSKFRPINVKLVIYCCHG returned an amyloid nucleation score of 0.499 ± 0.79.
IEYFCWFAILGKPFESGIGS showed an amyloid nucleation score of 0.991 ± 0.51.
